Measurements from IntAct's records for PubMed 22153509.

B1: Interleukin-5 receptor subunit alpha (Homo sapiens), Q01344-2 (parent)
chain: MIIVAHVLLILLGATEILQADLLPDEKISLLPPVNFTIKVTGLAQVLLQWKPNPDQEQRNVNLEYQVKINAPKEDDYETRITESKCVTILHKGFSASVRTILQNDHSLLASSWASAELHAPPGSPGTSIVNLTCTTNTTEDNYSRLRSYQVSLHCTWLVGTDAPEDTQYFLYYRYGSWTEECQEYSKDTLGRNIACWFPRTFILSKGRDWLAVLVNGSSKHSAIRPFDQLFALHAIDQINPPLNVTAEIEGTRLSIQWEKPVSAFPIHCFDYEVKIHNTRNGYLQIEKLMTNAFISIIDDLSKYDVQVRAAVSSMCREAGLWSEWSQPIYVGFSR

Variants of: B1
Details: with il5_human IL5, P05113
Chain of il5_human IL5, P05113 (P05113 whole entry): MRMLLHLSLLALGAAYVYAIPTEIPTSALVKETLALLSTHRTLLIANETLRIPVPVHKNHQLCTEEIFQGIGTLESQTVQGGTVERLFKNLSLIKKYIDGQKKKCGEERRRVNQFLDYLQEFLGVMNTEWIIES

**Q.** For MIIVAHVLLILLGATEILQADLLPDEKISLLPPVNFTIKVTGLAQVLLQWKPNPDQEQRNVNLEYQVKINAPKEDDYETRITESKCVTILHKGFSASVRTILQNDHSLLASSWASAELHAPPGSPGTSIVNLTCTTNTTEDNYSRLRSYQVSLHCTWLVGTDAPEDTQYFLYYRYGSWTEECQEYSKDTLGRNIACWFPRTFILSKGRDWLAVLVNGSSKHSAIRPFDQLFALHAIDQINPPLNVTAEIEGTRLSIQWEKPVSAFPIHCFDYEVKIHNTRNGYLQIEKLMTNAFISIIDDLSKYDVQVRAAVSSACREAGLWSEWSQPIYVGFSR [M315A], which “effect of a mutation on the interaction” value is on record?
**A.** decreasing interaction

**Q.** Which “effect of a mutation on the interaction” value does the source give for MIIVAHVLLILLGATEILQADLLPDEKISLLPPVNFTIKVTGLAQVLLQWKPNPDQEQRNVNLEYQVKINAPKEDDYETRITEAKCVTILHKGFSASVRTILQNDHSLLASSWASAELHAPPGSPGTSIVNLTCTTNTTEDNYSRLRSYQVSLHCTWLVGTDAPEDTQYFLYYRYGSWTEECQEYSKDTLGRNIACWFPRTFILSKGRDWLAVLVNGSSKHSAIRPFDQLFALHAIDQINPPLNVTAEIEGTRLSIQWEKPVSAFPIHCFDYEVKIHNTRNGYLQIEKLMTNAFISIIDDLSKYDVQVRAAVSSMCREAGLWSEWSQPIYVGFSR [S84A] here?
**A.** decreasing interaction

**Q.** With MIIVAHVLLILLGATEILQADLLPDEKISLLPPVNFTIKVTGLAQVLLQWKPNPDQEQRNVNLEYQVKINAPKEEDYETRITESKCVTILHKGFSASVRTILQNDHSLLASSWASAELHAPPGSPGTSIVNLTCTTNTTEDNYSRLRSYQVSLHCTWLVGTDAPEDTQYFLYYRYGSWTEECQEYSKDTLGRNIACWFPRTFILSKGRDWLAVLVNGSSKHSAIRPFDQLFALHAIDQINPPLNVTAEIEGTRLSIQWEKPVSAFPIHCFDYEVKIHNTRNGYLQIEKLMTNAFISIIDDLSKYDVQVRAAVSSMCREAGLWSEWSQPIYVGFSR [D75E] as the variant, how does the “effect of a mutation on the interaction” value read?
**A.** decreasing interaction

**Q.** Which “effect of a mutation on the interaction” value does the source give for MIIVAHVLLILLGATEILQADLLPDEKISLLPPVNFTIKVTGLAQVLLQWKPNPDQEQRNVNLEYQVKINAPKEDDYETRITESKCVTILHKGFSASVRTILQNDHSLLASSWASAELHAPPGSPGTSIVNLTCTTNTTEDNYSRLRSYQVSLHCTWLVGTDAPEDTQYFLYYRYGSWTEECQEYSKDTLGRNIACWFPRTFILSKGRDWLAVLVNGSSKHSAIRPFAQLFALHAIDQINPPLNVTAEIEGTRLSIQWEKPVSAFPIHCFDYEVKIHNTRNGYLQIEKLMTNAFISIIDDLSKYDVQVRAAVSSMCREAGLWSEWSQPIYVGFSR [D228A] here?
**A.** disrupting interaction

**Q.** With MIIVAHVLLILLGATEILQADLLPDEKISLLPPVNFTIKVTGLAQVLLQWKPNPDQEQRNVNLEYQVKINAPKEDDYPTRITESKCVTILHKGFSASVRTILQNDHSLLASSWASAELHAPPGSPGTSIVNLTCTTNTTEDNYSRLRSYQVSLHCTWLVGTDAPEDTQYFLYYRYGSWTEECQEYSKDTLGRNIACWFPRTFILSKGRDWLAVLVNGSSKHSAIRPFDQLFALHAIDQINPPLNVTAEIEGTRLSIQWEKPVSAFPIHCFDYEVKIHNTRNGYLQIEKLMTNAFISIIDDLSKYDVQVRAAVSSMCREAGLWSEWSQPIYVGFSR [E78P] as the variant, how does the “effect of a mutation on the interaction” value read?
**A.** disrupting interaction

**Q.** How did the “effect of a mutation on the interaction” value turn out when MIIVAHVLLILLGATEILQADLLPDEKISLLPPVNFTIKVTGLAQVLLQWKPNPDQEQRNVNLEYQVKINAPKEDDYETRITESKCVTILHKGFSASVRTILQNDHSLLASSWASAELHAPPGSPGTSIVNLTCTTNTTEDNYSRLRSYQVSLHCTWLVGTDAPEDTQYFLYYRYGSATEECQEYSKDTLGRNIACWFPRTFILSKGRDWLAVLVNGSSKHSAIRPFDQLFALHAIDQINPPLNVTAEIEGTRLSIQWEKPVSAFPIHCFDYEVKIHNTRNGYLQIEKLMTNAFISIIDDLSKYDVQVRAAVSSMCREAGLWSEWSQPIYVGFSR [W178A] was run?
**A.** decreasing interaction

**Q.** With MIIVAHVLLILLGATEILQADLLPDEKISLLPPVNFTIKVTGLAQVLLQWKPNPDQEQRNVNLEYQVKINAPKEDDYETRITESKCVTALHKGFSASVRTILQNDHSLLASSWASAELHAPPGSPGTSIVNLTCTTNTTEDNYSRLRSYQVSLHCTWLVGTDAPEDTQYFLYYRYGSWTEECQEYSKDTLGRNIACWFPRTFILSKGRDWLAVLVNGSSKHSAIRPFDQLFALHAIDQINPPLNVTAEIEGTRLSIQWEKPVSAFPIHCFDYEVKIHNTRNGYLQIEKLMTNAFISIIDDLSKYDVQVRAAVSSMCREAGLWSEWSQPIYVGFSR [I89A] as the variant, how does the “effect of a mutation on the interaction” value read?
**A.** decreasing interaction

**Q.** How did the “effect of a mutation on the interaction” value turn out when MIIVAHVLLILLGATEILQADLLPDEKISLLPPVNFTIKVTGAAQVLLQWKPNPDQEQRNVNLEYQVKINAPKEDDYETRITESKCVTILHKGFSASVRTILQNDHSLLASSWASAELHAPPGSPGTSIVNLTCTTNTTEDNYSRLRSYQVSLHCTWLVGTDAPEDTQYFLYYRYGSWTEECQEYSKDTLGRNIACWFPRTFILSKGRDWLAVLVNGSSKHSAIRPFDQLFALHAIDQINPPLNVTAEIEGTRLSIQWEKPVSAFPIHCFDYEVKIHNTRNGYLQIEKLMTNAFISIIDDLSKYDVQVRAAVSSMCREAGLWSEWSQPIYVGFSR [L43A] was run?
**A.** disrupting interaction

**Q.** How did the “effect of a mutation on the interaction” value turn out when MIIVAHVLLILLGATEILQADLLPDEKISLLPPVNFTIKVTGLAQVLLQWKPNPDQEQRNVNLEYQVKINAPKEDDYETRITESKCVTILHKGFSASVRTILQNDHSLLASSWASAELHAPPGSPGTSIVNLTCTTNTTEDNYSRLRSYQVSLHCTWLVGTDAPEDTQYFLYYRYGSWTEECQEYSKDTLGRNIACWFPRTFILSKGKDWLAVLVNGSSKHSAIRPFDQLFALHAIDQINPPLNVTAEIEGTRLSIQWEKPVSAFPIHCFDYEVKIHNTRNGYLQIEKLMTNAFISIIDDLSKYDVQVRAAVSSMCREAGLWSEWSQPIYVGFSR [R208K] was run?
**A.** decreasing interaction

**Q.** MIIVAHVLLILLGATEILQADLLPDEKISLLPPVNFTIKVTGLAQVLLQWKPNPDQEQRNVNLEYQVKINAPKEDDYETRITESKCVTILHKGFSASVRTILQNDHSLLASSWASAELHAPPGSPGTSIVNLTCTTNTTEDNYSRLRSYQVSLHCTWLVGTDAPEDTQYFLYYRYGSWTEECQEYSKDTLGRNIACWFPRTFALSKGRDWLAVLVNGSSKHSAIRPFDQLFALHAIDQINPPLNVTAEIEGTRLSIQWEKPVSAFPIHCFDYEVKIHNTRNGYLQIEKLMTNAFISIIDDLSKYDVQVRAAVSSMCREAGLWSEWSQPIYVGFSR [I203A] was tested. Which “effect of a mutation on the interaction” value did it give?
**A.** decreasing interaction

**Q.** With MIIVAHVLLILLGATEILQADLLPDEKISLLPPVNFTIKVTGLAQVLLQWKPNPDQEQRNVNLEYQVKINAPKEDDAETRITESKCVTILHKGFSASVRTILQNDHSLLASSWASAELHAPPGSPGTSIVNLTCTTNTTEDNYSRLRSYQVSLHCTWLVGTDAPEDTQYFLYYRYGSWTEECQEYSKDTLGRNIACWFPRTFILSKGRDWLAVLVNGSSKHSAIRPFDQLFALHAIDQINPPLNVTAEIEGTRLSIQWEKPVSAFPIHCFDYEVKIHNTRNGYLQIEKLMTNAFISIIDDLSKYDVQVRAAVSSMCREAGLWSEWSQPIYVGFSR [Y77A] as the variant, how does the “effect of a mutation on the interaction” value read?
**A.** decreasing interaction

**Q.** MIIVAHVLLILLGATEILQADLLPDEKISLLPPVNFTIKVTGLAQVLLQWKPNPDQEQRNVNLEYQVKINAPKEDDYETAITESKCVTILHKGFSASVRTILQNDHSLLASSWASAELHAPPGSPGTSIVNLTCTTNTTEDNYSRLRSYQVSLHCTWLVGTDAPEDTQYFLYYRYGSWTEECQEYSKDTLGRNIACWFPRTFILSKGRDWLAVLVNGSSKHSAIRPFDQLFALHAIDQINPPLNVTAEIEGTRLSIQWEKPVSAFPIHCFDYEVKIHNTRNGYLQIEKLMTNAFISIIDDLSKYDVQVRAAVSSMCREAGLWSEWSQPIYVGFSR [R80A] was tested. Which “effect of a mutation on the interaction” value did it give?
**A.** decreasing interaction
